{"source": "paper PMC5658772", "about": "(2017)", "binders": {"B1": {"name": "m302 IgG1 (antibody, V domains shown)", "VH": "EVQLVQSGGGLVKPGRSLRLSCAASGFTFSSYAMHWVRQAPGKGLEWVAVISYDGSNKYYADSVKGRFTISRDNSKNTLYLQMNSLRAEDTAVYYCAREIGDYYYYGMDVWGQGTLVTVSS", "VL": "EIVMTQSPATLSLSPGERATLSCRASQSVSSYLAWYQQKPGQAPRLLIYDASNRATGIPARFSGSGSGTDFTLTISSLQPEDFATYYCQQSYSTPLTFGGGTKVEIK"}}, "molecular_target": "T1, ZIKV envelope protein domain III-hFc fusion protein (ZIKV-DIII-hFc) (Zika virus strain MR766, UniProt Q32ZE1)", "T1 chain": "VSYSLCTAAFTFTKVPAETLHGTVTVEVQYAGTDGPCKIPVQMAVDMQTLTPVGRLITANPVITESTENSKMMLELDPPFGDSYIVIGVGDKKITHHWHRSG", "test": "BLI"}
{"binder": "B1", "values": [{"measurement": "koff", "result": 0.00177, "unit": "s⁻¹"}]}
